# According to US20260365696A1, “INHIBITORS OF PTP1B / NCK1 INTERACTION AND METHODS OF MAKING AND USING SAME” (Radella Pharmaceuticals LLC, priority 2023, published 2026):
# T1: NCK1 SH3-2 domain (human)
# T1 chain: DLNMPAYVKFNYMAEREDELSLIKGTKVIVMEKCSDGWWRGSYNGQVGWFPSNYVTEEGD
# Molecular target: T1, NCK1 SH3-2 domain
# Experiment: ITC
row,Binder,Kd [µM]
1,Ac-PPPEHIPPAPRPPKR-NH2 [MH001],< 300
2,Ac-PPPEHIAPPPRPPKR-NH2 [MSJ018],< 300
3,Ac-PPPEHIPPPPAPPKR-NH2 [MH003],< 300
4,Ac-PPPEHIPPPPRPPKR-NH2 [MD17],< 300
5,Ac-APPEHIPPPPRPPKR-NH2 [MSJ012],< 300
6,Ac-PAPEHIPPPPRPPKR-NH2 [MSJ013],< 300
7,Ac-PPAEHIPPPPRPPKR-NH2 [MSJ014],< 300

# Next, values leading:
row,Kd [µM],Binder
1,< 300,Ac-PPPAHIPPPPRPPKR-NH2 [MSJ015]
2,> 1000,Ac-PPPEHIPPPPRPAKR-NH2 [MH005]
3,< 300,Ac-PPPEHAPPPPRPPKR-NH2 [MSJ017]
4,< 300,Ac-PPPEAIPPPPRPPKR-NH2 [MSJ016]

# Molecular target: T1, NCK1 SH3-2 domain
# Experiment: ITC
# Remark: another data set of the same source
row,Binder,Kd [µM]
1,Ac-PPRPPPR-NH2 [MH107],< 300
2,Ac-PPRPPSR-NH2 [MH052],< 300
3,Ac-PPRPPCR-NH2 [MH054],< 300
4,Ac-PPRPPWR-NH2 [MH050],< 300
5,Ac-PPRPPLR-NH2 [MH102],< 300
6,Ac-PPRPPRR-NH2 [MH048],< 300
7,Ac-PPRPPER-NH2 [MH051],< 300
8,Ac-PPRPPNR-NH2 [MH053],< 300
9,Ac-PPRPPTR-NH2 [MH116],< 300
10,Ac-PPRPPHR-NH2 [MH049],< 300
11,Ac-PPRPPDR-NH2 [MH085],< 600

# The next lines start with the values.
row,Kd [µM],Binder
1,< 300,Ac-PPRPPMR-NH2 [MH112]
2,< 300,Ac-PPRPPVR-NH2 [MH126]
3,< 300,Ac-PPRPPYR-NH2 [MH122]
4,< 300,Ac-PPRPPIR-NH2 [MH098]
5,> 600,Ac-PPRPPGR-NH2 [MH094]
6,< 600,Ac-PPRPPFR-NH2 [MH105]
7,< 300,Ac-PPRPPQR-NH2 [MH088]

# Molecular target: T1, NCK1 SH3-2 domain
# Experiment: ITC
# Remark: another data set of the same source
row,Binder,Kd [µM]
1,Ac-PPRPPKRC-NH2 [MH142],< 300
2,Ac-PPRPPKRL-NH2 [MH147],< 300
3,Ac-PPRPPKRS-NH2 [MH152],< 300
4,Ac-PPRPPKRA-NH2 [MH138],< 300
5,Ac-PPRPPKRN-NH2 [MH140],< 300

# Now from value to binder:
row,Kd [µM],Binder
1,< 300,Ac-PPRPPKRM-NH2 [MH149]
2,< 300,Ac-PPRPPKRW-NH2 [MH154]
3,< 300,Ac-PPRPPKRK-NH2 [MH148]
4,< 300,Ac-PPRPPKRY-NH2 [MH155]
5,< 300,Ac-PPRPPKRF-NH2 [MH150]
6,< 300,Ac-PPRPPKRR-NH2 [MH139]
7,< 300,Ac-PPRPPKRH-NH2 [MH146]
8,< 300,Ac-PPRPPKRG-NH2 [MH145]
9,< 600,Ac-PPRPPKRP-NH2 [MH151]
10,< 300,Ac-PPRPPKRD-NH2 [MH141]

# Molecular target: T1, NCK1 SH3-2 domain
# Experiment: ITC
# Remark: another data set of the same source
row,Binder,Kd [µM]
1,Ac-PPNPPKR-NH2 [MH060],< 300
2,Ac-PPWPPKR-NH2 [MH056],< 600
3,Ac-PPCPPKR-NH2 [MH061],< 300
4,Ac-PPSPPKR-NH2 [MH059],< 300
5,Ac-PPHPPKR-NH2 [MH057],< 300
6,Ac-PPIPPKR-NH2 [MH096],< 300
7,Ac-PPYPPKR-NH2 [MH120],< 300
8,Ac-PPPPPKR-NH2 [MH106],< 300
9,Ac-PPEPPKR-NH2 [MH058],< 300
10,Ac-PPVPPKR-NH2 [MH124],< 300

# Continued, values first:
row,Kd [µM],Binder
1,< 300,Ac-PPDPPKR-NH2 [MH084]
2,< 300,Ac-PPQPPKR-NH2 [MH087]
3,< 300,Ac-PPLPPKR-NH2 [MH100]
4,< 300,Ac-PPFPPKR-NH2 [MH066]
5,> 600,Ac-PPGPPKR-NH2 [MH092]
6,< 300,Ac-PPTPPKR-NH2 [MH114]
7,< 300,Ac-PPKPPKR-NH2 [MH055]
8,< 300,Ac-PPMPPKR-NH2 [MH110]

# Molecular target: T1, NCK1 SH3-2 domain
# Experiment: ITC
# Remark: another data set of the same source
row,Binder,Kd [µM]
1,Ac-EPRPPKR-NH2 [MH071],< 300
2,Ac-QPRPPKR-NH2 [MH086],< 300
3,Ac-DPRPPKR-NH2 [MH083],< 300
4,Ac-MPRPPKR-NH2 [MH109],< 300
5,Ac-CPRPPKR-NH2 [MH070],< 300

# More lines, now with the values ahead:
row,Kd [µM],Binder
1,< 300,Ac-RPRPPKR-NH2 [MH068]
2,< 300,Ac-TPRPPKR-NH2 [MH113]
3,< 300,Ac-FPRPPKR-NH2 [MH073]
4,< 300,Ac-VPRPPKR-NH2 [MH123]
